Where two headings read alike, the source gives them in different places.
Assays:
DH5a Escherichia coli = format: cell-based
Procedure: Bacterial culture and cytotoxicity measurement: DH5a Escherichia coli were a gift from Todd Sulchek's BioMEMS lab at Georgia Tech. E. coli were cultured in LB broth (Lennox) at 37 C and plated on LB agar (Lennox) plates. LB broth was purchased from Millipore Sigma (Burlington, Mass.) and LB agar was purchased from Invitrogen (Carlsbad, Calif.). AMP and locked AMP were custom ordered from Genscript (Piscataway, NJ). […] Concentration was estimated by measuring the OD600 of the bacterial suspension, and assuming an OD600 of 1.000 corresponds to a concentration of 8×10^8 CFU/mL. Bacterial cell viability was measured by making eight 10-fold serial dilutions, and plating three 10 uL spots on an LB agar plate. Plates were incubated overnight at 37° C., and CFUs were counted.

OmpT [1] = biological target: T1, OmpT (Escherichia coli, UniProt P09169); format: cell-based, E. coli; set-up: OmpT expressed on the surface of E. coli; endogenous in cells; host or cells: DH5a Escherichia coli
Procedure: To model the rate of enzymatic activation of locked drugs, L, by OmpT, Michaelis-Menten (MM) kinetics were applied, where the rate of substrate activation is determined by the catalytic rate of the reaction, kcat, and the half-maximal substrate concentration, Km (Equation 1.3). Here it was assumed the system constituted a well-mixed solution of freely diffusing substrates (i.e., locked drug) in large excess, which were valid assumptions for this study since AMP prodrug was present at concentrations ˜102 micromolar in an aqueous environment. Because the total amount of drug is conserved, the MM activation rate of unlocked drug, U, was defined as opposite of the degradation rate of locked drug L (Equation 1.4). A term to account for the loss of active AMPS was included according to a proportionality constant, a*, that represents the number AMP required to kill one E. coli. This term was necessary as AMPS lyse E. coli by intercalating with bacterial membranes (Roversi, et al. ACS Chemical Biology, 9:2-3-2007 (2014)) and therefore are removed from the system and unable to target additional bacteria.
To fit this model to the disclosed system, the values for relevant parameters, including enzymatic efficiency (e.g., kcat, Km), bacterial growth (e.g., r, Bmax), and prodrug activity (e.g., a, a*) were measured (FIGS. 2A-2D, Table 2). This allowed for the prediction of bacteria-prodrug response curves (FIGS. 3B-3J) across nine distinct combinations of kcat and r values, which were experimentally controlled by altering the ambient temperature and concentration of broth (conditions labeled A1-3, B1-3, and C1-3). […] To experimentally validate the model predictions, bacteria were incubated with prodrugs under the defined nine conditions, and the number of living bacteria were quantified longitudinally over the course of a 24 hour treatment window. […]

OmpT [2] = biological target: T1, OmpT; format: biochemical, E. coli; set-up: purchased Lifespan Biosciences (Seattle, WA)
Procedure: Protease Cleavage Assays: All protease cleavage assays were performed with a BioTek Cytation 5 Imaging Plate Reader, taking fluorescent measurements at 485/528 nm (excitation/emission) for read-outs measuring peptide substrates terminated with FITC (Fluorescein isothiocyanate). Kinetic measurements were taken every minute over the course of 60-120 minutes at 37 C. Tobacco Etch Virus protease (TEVp), along with its substrate and buffer was obtained from Anaspec, Inc. (Fremont, Calif.). Activity RFU measurements were normalized to time 0 measurement, and as such represent fold change in signal. Outer Membrane Protease T (i.e., OmpT, Protease 7) was purchased from Lifespan Biosciences (Seattle, WA). OmpT fluorescent peptide substrate was custom ordered from Genscript (Piscataway, NJ).

[3] = biological target: T2, OmpT expressed on the surface of E. coli (Escherichia coli, UniProt P09169); format: cell-based
T2 construct: OmpT expressed on the surface of E. coli; endogenous in cells; host or cells: DH5a Escherichia coli
T2 sequence (P09169 21-317): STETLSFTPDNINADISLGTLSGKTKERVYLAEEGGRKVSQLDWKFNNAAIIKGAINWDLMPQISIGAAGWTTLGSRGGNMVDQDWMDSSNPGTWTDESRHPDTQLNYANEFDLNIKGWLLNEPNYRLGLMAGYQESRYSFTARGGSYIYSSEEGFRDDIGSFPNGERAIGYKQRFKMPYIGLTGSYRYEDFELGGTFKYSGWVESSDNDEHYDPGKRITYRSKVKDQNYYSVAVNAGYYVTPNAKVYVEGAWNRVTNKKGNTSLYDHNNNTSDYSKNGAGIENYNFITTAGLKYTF

T1 sequence (P09169 21-317): as above

Substance: EEEEEEEEENLYFQGRRRRRRRRR [Locked AMP (linker 3)]
- Bacteria load after prodrug treatment (DH5a Escherichia coli; prodrug alone): did not significantly reduce bacteria load
- Bacteria load after prodrug treatment (DH5a Escherichia coli; prodrug plus TEV protease): Elimination of bacteria

Substance: AMP: cationic (polyarginine) antimicrobial peptide, the unlocked drug (KLAKLAKKLAKLAK; Bacterial protease substrate)
- Cytotoxicity of unlocked drug (colonies) (DH5a Escherichia coli): significant reduction in colonies
- a*, AMP decay (number of AMP required to kill one E. coli) (OmpT [1]): 2.4e11 AMP/bacteria
- a, cytotoxic efficiency, EC50 (OmpT [1]): 1e11 h^−1, AMP/bacteria/hr

Substance: DABCYL-RRSRRV-Lys(5-FAM) [OmpT Probe]
- OmpT cleavage activity against fluorophore-quencher linker probe (OmpT [2]; recombinant OmpT): OmpT activity was detected
- OmpT cleavage activity against fluorophore-quencher linker probe ([3]; live E. coli culture): OmpT activity was detected

Substance: EEEEEEEEEEEEERRSRRVRRRRRRRRR [Locked AMP (linker 1)]
- Bacteria load after prodrug treatment (DH5a Escherichia coli; prodrug alone): Elimination of bacteria
- Km, Michaelis constant (OmpT [1]): 9e+12 µL⁻¹
- kcat (OmpT [1]; condition A1: 37 °C, LB broth 0%): 25 h^−1 × 10^10
- kcat (OmpT [1]; condition A2: 30 °C, LB broth 2%): 13.6 h^−1 × 10^10
- kcat (OmpT [1]; condition A3: 37 °C, LB broth 2%): 22 h^−1 × 10^10
- kcat (OmpT [1]; condition B1: 37 °C, LB broth 4%): 15 h^−1 × 10^10
- kcat (OmpT [1]; condition B2: 37 °C, LB broth 6%): 13.6 h^−1 × 10^10
- kcat (OmpT [1]; condition B3: 37 °C, LB broth 20%): 1 h^−1 × 10^10
- kcat (OmpT [1]; condition C1: 30 °C, LB broth 20%): 5.2 h^−1 × 10^10
- kcat (OmpT [1]; condition C2: 30 °C, LB broth 66%): 4 h^−1 × 10^10
- kcat (OmpT [1]; condition C3: 37 °C, LB broth 66%): 6 h^−1 × 10^10
- kcat, enzyme catalytic turnover (OmpT [1]; range over conditions): 0.7-25e10 h^−1

Substance: Aprotinin
- Bacteria load after prodrug treatment (DH5a Escherichia coli; locked AMP plus Aprotinin inhibitor): did not significantly reduce bacteria load
- OmpT activity in samples containing inhibitor (OmpT [2]; recombinant OmpT plus inhibitor): no activity was observed
- OmpT activity in samples containing inhibitor ([3]; live E. coli culture plus inhibitor): no activity was observed

Reference: patent US12062453B2, “Self-titrating bacterial protease-activated prodrug” (GEORGIA TECH RESEARCH CORPORATION, priority 2018, dated 2024)
